Assays:
Assay in all cases: SPR, KD relative to WT C2;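 note: biacore SPR at 37 °C, anti-C2 mAbs captured via immobilised goat anti-human IgG, C2 alanine or serine surface mutants as analytes, 1:1 model fitted, double-referenced sensograms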
[1] = target: T1, human C2 A436S (human, UniProt P06681 21-752)
T1 sequence: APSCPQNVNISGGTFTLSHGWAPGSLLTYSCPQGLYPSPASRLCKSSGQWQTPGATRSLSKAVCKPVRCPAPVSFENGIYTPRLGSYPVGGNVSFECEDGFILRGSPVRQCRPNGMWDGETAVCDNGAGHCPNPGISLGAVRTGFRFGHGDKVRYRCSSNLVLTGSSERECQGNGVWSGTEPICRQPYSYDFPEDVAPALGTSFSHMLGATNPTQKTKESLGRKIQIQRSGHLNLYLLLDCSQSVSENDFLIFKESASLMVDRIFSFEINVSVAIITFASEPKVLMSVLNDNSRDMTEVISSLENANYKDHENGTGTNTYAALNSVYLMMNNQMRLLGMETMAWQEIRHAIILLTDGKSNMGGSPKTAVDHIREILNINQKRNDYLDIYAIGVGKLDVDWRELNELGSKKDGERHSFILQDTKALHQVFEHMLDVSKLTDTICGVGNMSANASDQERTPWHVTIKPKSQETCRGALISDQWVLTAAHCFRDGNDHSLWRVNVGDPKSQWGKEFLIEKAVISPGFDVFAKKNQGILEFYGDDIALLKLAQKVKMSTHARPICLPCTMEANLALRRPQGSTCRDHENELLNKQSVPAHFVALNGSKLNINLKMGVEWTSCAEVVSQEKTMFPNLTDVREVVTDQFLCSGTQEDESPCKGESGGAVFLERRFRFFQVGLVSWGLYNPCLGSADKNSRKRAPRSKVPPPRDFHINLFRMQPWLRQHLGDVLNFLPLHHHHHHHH

[2] = target: T2, human C2 D710A (human, UniProt P06681 21-752)
T2 sequence: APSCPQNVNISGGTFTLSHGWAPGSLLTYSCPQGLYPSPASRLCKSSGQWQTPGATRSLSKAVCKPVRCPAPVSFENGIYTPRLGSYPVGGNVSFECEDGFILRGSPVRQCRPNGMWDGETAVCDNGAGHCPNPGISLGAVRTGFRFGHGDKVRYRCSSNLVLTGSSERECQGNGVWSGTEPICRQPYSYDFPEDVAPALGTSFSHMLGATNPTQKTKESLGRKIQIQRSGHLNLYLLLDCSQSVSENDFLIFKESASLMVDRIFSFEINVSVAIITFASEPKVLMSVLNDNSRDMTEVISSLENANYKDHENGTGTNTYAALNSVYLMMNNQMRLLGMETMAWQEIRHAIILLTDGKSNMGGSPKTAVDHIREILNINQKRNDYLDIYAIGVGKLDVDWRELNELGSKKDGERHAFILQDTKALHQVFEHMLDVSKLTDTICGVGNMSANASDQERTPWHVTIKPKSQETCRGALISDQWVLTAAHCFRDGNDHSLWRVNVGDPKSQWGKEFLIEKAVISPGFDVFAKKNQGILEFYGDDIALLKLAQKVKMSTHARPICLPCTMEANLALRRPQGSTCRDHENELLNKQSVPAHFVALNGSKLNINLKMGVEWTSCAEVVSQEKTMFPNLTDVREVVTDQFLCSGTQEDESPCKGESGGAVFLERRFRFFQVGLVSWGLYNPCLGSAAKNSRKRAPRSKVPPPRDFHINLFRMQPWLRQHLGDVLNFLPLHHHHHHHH

[3] = target: T3, human C2 P723A (human, UniProt P06681 21-752)
T3 sequence: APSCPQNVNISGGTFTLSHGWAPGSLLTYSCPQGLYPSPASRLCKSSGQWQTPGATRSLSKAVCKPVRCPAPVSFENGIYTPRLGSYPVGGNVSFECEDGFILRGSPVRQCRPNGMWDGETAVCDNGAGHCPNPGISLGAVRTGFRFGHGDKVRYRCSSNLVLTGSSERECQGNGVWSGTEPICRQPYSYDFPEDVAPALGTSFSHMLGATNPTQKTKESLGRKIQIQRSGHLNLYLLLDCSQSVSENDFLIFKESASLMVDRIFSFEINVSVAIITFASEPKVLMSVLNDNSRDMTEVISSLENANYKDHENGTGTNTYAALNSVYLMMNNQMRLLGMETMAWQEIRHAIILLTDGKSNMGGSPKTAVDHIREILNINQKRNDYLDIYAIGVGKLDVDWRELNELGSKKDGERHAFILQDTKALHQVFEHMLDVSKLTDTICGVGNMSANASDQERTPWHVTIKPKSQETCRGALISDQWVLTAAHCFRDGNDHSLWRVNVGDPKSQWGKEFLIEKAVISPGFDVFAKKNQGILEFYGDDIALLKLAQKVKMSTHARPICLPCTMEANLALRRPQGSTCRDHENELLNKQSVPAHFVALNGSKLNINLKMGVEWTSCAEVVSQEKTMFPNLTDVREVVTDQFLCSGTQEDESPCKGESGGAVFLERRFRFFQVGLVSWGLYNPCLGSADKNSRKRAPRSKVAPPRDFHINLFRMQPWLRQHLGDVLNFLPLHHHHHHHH

[4] = target: T4, human C2 D441A (human, UniProt P06681 21-752)
T4 sequence: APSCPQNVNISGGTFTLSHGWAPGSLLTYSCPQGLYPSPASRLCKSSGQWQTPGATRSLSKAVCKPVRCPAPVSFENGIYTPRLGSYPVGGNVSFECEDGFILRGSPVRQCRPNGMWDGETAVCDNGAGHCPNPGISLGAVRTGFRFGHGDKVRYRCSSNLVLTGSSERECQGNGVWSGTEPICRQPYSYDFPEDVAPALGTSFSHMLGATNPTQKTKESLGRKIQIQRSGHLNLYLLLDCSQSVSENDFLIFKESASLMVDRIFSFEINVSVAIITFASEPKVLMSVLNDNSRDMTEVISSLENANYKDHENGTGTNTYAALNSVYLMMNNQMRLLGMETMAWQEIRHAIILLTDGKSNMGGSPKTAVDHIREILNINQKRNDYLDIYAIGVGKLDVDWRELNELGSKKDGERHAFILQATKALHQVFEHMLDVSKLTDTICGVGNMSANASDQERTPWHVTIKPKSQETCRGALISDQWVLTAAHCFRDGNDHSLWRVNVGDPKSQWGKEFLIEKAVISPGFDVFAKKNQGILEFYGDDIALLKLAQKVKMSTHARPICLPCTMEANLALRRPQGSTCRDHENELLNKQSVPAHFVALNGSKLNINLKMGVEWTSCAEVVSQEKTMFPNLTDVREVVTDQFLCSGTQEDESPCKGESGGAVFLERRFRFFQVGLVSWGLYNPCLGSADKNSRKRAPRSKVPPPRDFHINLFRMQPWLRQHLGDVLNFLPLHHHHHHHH

B1: RF16-226 (antibody, human IgG4 S228P, lambda)
heavy: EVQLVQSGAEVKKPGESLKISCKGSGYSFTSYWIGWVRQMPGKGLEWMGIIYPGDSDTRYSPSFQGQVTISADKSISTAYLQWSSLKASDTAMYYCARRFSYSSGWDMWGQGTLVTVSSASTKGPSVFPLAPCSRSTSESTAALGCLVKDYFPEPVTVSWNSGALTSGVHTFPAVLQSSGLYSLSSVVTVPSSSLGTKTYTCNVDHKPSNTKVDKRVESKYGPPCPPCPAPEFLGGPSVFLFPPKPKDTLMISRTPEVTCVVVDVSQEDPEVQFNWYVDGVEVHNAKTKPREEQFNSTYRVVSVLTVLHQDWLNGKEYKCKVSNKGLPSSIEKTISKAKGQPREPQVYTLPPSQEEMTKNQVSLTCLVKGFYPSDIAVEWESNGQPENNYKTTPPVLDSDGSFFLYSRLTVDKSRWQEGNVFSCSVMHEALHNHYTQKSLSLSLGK
light: SYELTQPPSVSVSPGQTARITCSGDALTSKYVAWYQQKSGLAPLLVIYEDTRRPSGIPAKFSGSSSGSVATLTISGAHGDDEADYYCYSTDASGHQRVFGGGTKLTVLSQPKAAPSVTLFPPSSEELQANKATLVCLISDFYPGAVTVAWKADGSPVKAGVETTKPSKQSNNKYAASSYLSLTPEQWKSHRSYSCQVTHEGSTVEKTVAPTECS
notes: pH-dependent anti-C2 antibody from a phage display library; also called WT
With B1 the Fold diff [1] was 1 fold, the Fold diff [2] was 10 fold and the Fold diff [3] was 12 fold. For the same binder, the Fold diff [4] was 6 fold.
